B1: ZNF24 (parent)
chain: THTKEQILELVVLEQFVAILPKEL

Variants of: B1
Assay: protein stability index of a GFP-peptide fusion (GPS, HEK-293T) (PSI 1-6); higher = more stable
Conditions: c terminus: a fixed tail appended
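Further: lentivirally expressed fusions sorted by FACS into six bins by GFP to DsRed ratio, PSI derived from sequencing read proportions per bin multiplied by bin number.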

Variant | protein stability index
THTKEQILELVVLEQFVAILPAEL | 2.63
THTKEQILELVNLEQFVAILPKEL | 2.14
THTKEQILELVGLEQFVAILPKEL | 1.98
THTKEQILELVSLEQFVAILPKEL | 2.03
THTKEQILELVWLEQFVAILPKEL | 2.42
THTKEQILELVPLEQFVAILPKEL | 2.19
THTKEQILELVRLEQFVAILPKEL | 1.94
THTKEQILELVTLEQFVAILPKEL | 1.99
THTKEQILELVCLEQFVAILPKEL | 2.23
THTKEQILELVHLEQFVAILPKEL | 1.8
THTKEQILELVFLEQFVAILPKEL | 2.93
THTKEQILELVMLEQFVAILPKEL | 2.51
THTKEQILELVILEQFVAILPKEL | 3.17
THTKEQILELVLLEQFVAILPKEL | 2.12
THTKEQILELVELEQFVAILPKEL | 2.22
THTKEQILELVKLEQFVAILPKEL | 2.07
THTKEQILELVQLEQFVAILPKEL | 2.05
THTKEQILELVDLEQFVAILPKEL | 2.27
THTKEQILELVYLEQFVAILPKEL | 2.64
THTKEQILELVVLEQFVAFLPKEL | 2.22
THTKEQILELVVLEQFVARLPKEL | 2.16
THTKEQILELVVLEQFVAVLPKEL | 4.1
THTKEQILELVVLEQFVAGLPKEL | 1.52
THTKEQILELVVLEQFVAHLPKEL | 2.32

Variant | protein stability index
THTKEQILELVVLEQFVAKLPKEL | 2.14
THTKEQILELVVLEQFVASLPKEL | 1.95
THTKEQILELVVLEQFVAPLPKEL | 1.73
THTKEQILELVVLEQFVAQLPKEL | 2.01
THTKEQILELVVLEQFVAELPKEL | 2.37
THTKEQILELVVLEQFVATLPKEL | 1.8
THTKEQILELVVLEQFVADLPKEL | 1.77
THTKEQILELVVLEQFVAMLPKEL | 3.34
THTKEQILELVVLEQFVACLPKEL | 2.61
THTKEQILELVVLEQFVAALPKEL | 1.98
THTKEQILELVVLEQFVAWLPKEL | 1.85
THTKEQILELVVLEQFVALLPKEL | 2.38
THTKEQILELVVLEQFVANLPKEL | 1.7
THTKEQILELVVLEQFVAYLPKEL | 2.18
THTKEQILELVVLEQFVHILPKEL | 3.02
THTKEQILELVVLEQFVTILPKEL | 2.2
THTKEQILELVVLEQFVKILPKEL | 2.49
THTKEQILELVVLEQFVMILPKEL | 1.65
THTKEQILELVVLEQFVYILPKEL | 2.59
THTKEQILELVVLEQFVPILPKEL | 2.48
THTKEQILELVVLEQFVGILPKEL | 2.88
THTKEQILELVVLEQFVSILPKEL | 1.95
THTKEQILELVVLEQFVCILPKEL | 3.45
THTKEQILELVVLEQFVNILPKEL | 2.67

Variant | protein stability index
THTKEQILELVVLEQFVRILPKEL | 2.05
THTKEQILELVVLEQFVWILPKEL | 2.51
THTKEQILELVVLEQFVDILPKEL | 2.32
THTKEQILELVVLEQFVQILPKEL | 2.48
THTKEQILELVVLEQFVFILPKEL | 1.44
THTKEQILELVVLEQFVVILPKEL | 2.58
THTKEQILELVVLEQFVLILPKEL | 2.04
THTKEQILELVVLEQFVEILPKEL | 2.1
THTKEQILELVVLEFFVAILPKEL | 2.79
THTKEQILELVVLENFVAILPKEL | 2.81
THTKEQILELVVLEVFVAILPKEL | 3.51
THTKEQILELVVLECFVAILPKEL | 1.66
THTKEQILELVVLEAFVAILPKEL | 2
THTKEQILELVVLESFVAILPKEL | 2.93
THTKEQILELVVLEKFVAILPKEL | 1.75
THTKEQILELVVLEPFVAILPKEL | 2.4
THTKEQILELVVLEEFVAILPKEL | 2.55
THTKEQILELVVLEHFVAILPKEL | 2.53
THTKEQILELVVLEGFVAILPKEL | 2.95
THTKEQILELVVLEIFVAILPKEL | 2.87
THTKEQILELVVLEWFVAILPKEL | 2.82
THTKEQILELVVLETFVAILPKEL | 3.75
THTKEQILELVVLELFVAILPKEL | 2.44
THTKEQILELVVLERFVAILPKEL | 2.81

Variant | protein stability index
THTKEQILELVVLEDFVAILPKEL | 1.91
THTKEQILELVVLEYFVAILPKEL | 2.18
THTKEQILELVVLEMFVAILPKEL | 2.63
THTKEQILELVVLEQFAAILPKEL | 3.14
THTKEQILELVVLEQFEAILPKEL | 1.91
THTKEQILELVVLEQFCAILPKEL | 2.49
THTKEQILELVVLEQFLAILPKEL | 2.47
THTKEQILELVVLEQFFAILPKEL | 2.47
THTKEQILELVVLEQFPAILPKEL | 1.94
THTKEQILELVVLEQFDAILPKEL | 1.71
THTKEQILELVVLEQFQAILPKEL | 2.02
THTKEQILELVVLEQFMAILPKEL | 2.31
THTKEQILELVVLEQFTAILPKEL | 1.97
THTKEQILELVVLEQFHAILPKEL | 2.25
THTKEQILELVVLEQFIAILPKEL | 2.94
THTKEQILELVVLEQFWAILPKEL | 2.19
THTKEQILELVVLEQFGAILPKEL | 1.52
THTKEQILELVVLEQFSAILPKEL | 2.95
THTKEQILELVVLEQFKAILPKEL | 1.54
THTKEQILELVVLEQFYAILPKEL | 2.53
THTKEQILELVVLEQFNAILPKEL | 1.72
THTKEQILELVVLEQFRAILPKEL | 1.66

Source: the supplement of paper PMC10567573
